Assay results published in the supplement of paper PMC12636428.

Test system: Saccharomyces cerevisiae
Assay: transcriptional activation domain activity (GFP:mCherry ratio, weighted mean of sorted bins, harmonized to initial dataset scale) (arbitrary fluorescence ratio units); higher = stronger transcriptional activation
Details: beta-estradiol 1 µM; induction time 4 h
How it was run: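 For this assay, yeast diploids with a GFP reporter carried barcoded protein tiles at URA3, each fused to an estradiol-inducible synthetic transcription factor. Induction was a 1:5 dilution into SC with 1 uM beta-estradiol for 4 hours at 30 °C, followed by sorting into 8 bins by GFP:mCherry ratio and barcode sequencing. Tiles under 50 reads were dropped, and activation activity was calculated as the read-weighted mean of bin median fluorescence, averaged across barcodes and linearly mapped onto the initial dataset scale.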

VPLVSNSGIVCYDSKIMHAFLSGLLFLQGLMILWFIMIFKLVVRVLLGENAED
transcriptional activation domain activity: 43900

VPMAYHHYIALLIFGAYLSNVNALCVLSLLPLLLHSLFWSLGATNFLLLSVYN
transcriptional activation domain activity: 56600

VPPELYVCAEIVRMVMGYVEGGFVKSSSNHKIRPEVLLIACLIVSIKICYSME
transcriptional activation domain activity: 61300

VPPRSLCFLPSFSILTYILLIFSHLAVCPRPGPPSSSPVSIVLLLFFLRPYLL
transcriptional activation domain activity: 67500

VPRHLFEKSTLKSLFYVGRHLGLTAAFYVFATHIDRIAWELCARFGYGHRIRG
transcriptional activation domain activity: 20700

VPRKLTASIHHPVEGLFYGTYWVSISLILNCAHAYGVPSSGPWLVRALEVCFW
transcriptional activation domain activity: 64800

VPRLKSPVYCVCLGSIILYSICLVLLVIYRVALIRESDGVCLIGFARGGSLPL
transcriptional activation domain activity: 31200

VPSDSRRCRLKGVTVFTWWRNVFRQALRHQRWICLQYITSFEREWRSVLAIVR
transcriptional activation domain activity: 44800

VPSSIPRARRLQTAMVAIWSTSIVTTFALTLFLCSFPPLWPFMLMYVIWLNYI
transcriptional activation domain activity: 49000

VPTVFMAIIQEFASFLYLYQMMCMWVWYYFQYYQMGLVQTIIILMAAFIRVFL
transcriptional activation domain activity: 65400

VPVNPLALSPETGGPKKLPVARVLVDDEEDEEAKKLSTKPRLVIVGGGWGAVG
transcriptional activation domain activity: 41900

VPWSRSGHAIDLRFVRSFVAALVFLLLLLFLLLLLLLLLLLLLLLFLLFFFVF
transcriptional activation domain activity: 37200

VPYFHGLQPNNHYIHRLVVIFLQFAPSFIILTISYEGLFYFGFCLCLFCWILL
transcriptional activation domain activity: 40300

VPYQKYLYYPLLCFGRFNLYVLSLEFILRDKGPKSNRWHRFYELSGQVFFWFW
transcriptional activation domain activity: 71200

VQALASGDFDAGDGGRTTRPLFRKQKGASLFFVTSVCDTVCLAWTVVVHGHRQ
transcriptional activation domain activity: 20600

VQASMAADYAISQFRFLHKLLLVQGHWSYARISEMILTFFFKNIFWVFPSLWY
transcriptional activation domain activity: 56100

VQFVLDLIVMVGVAGYNTVAQLYFPQLPHHKCSNSAATGSFGLFLICCYLVLF
transcriptional activation domain activity: 53700

VQGTTHGRILIQAGKEIWTQELLLPYVYFILTLNPTIHTWERIKKITGYVFRA
transcriptional activation domain activity: 64200

VQKNYIMQYGNSLIGHQLKTLVQVNAFHVYDLVDSMQFLLTKVISELATLLWF
transcriptional activation domain activity: 59200

VQLSFYRNKIFLTILNYCSGLFVLLFFFYSLFRSVILQNSSLLMLYCACWIYI
transcriptional activation domain activity: 60600

VQLVLVLILVNILINILTFLILSHQGVMHTSCLYLFAYICARLCLGASLSGVW
transcriptional activation domain activity: 12800

VQRLHALEKHEYDVCTNLEACLRFGLWAQRGVLSLWHLDLLNGTWMTCLSGVK
transcriptional activation domain activity: 39600

VQRYLCQYQPQITLGFMIFTDMIFFFLDTYLCYVLLNTIFSIARSFYIGSSIW
transcriptional activation domain activity: 56700

VQVDDRSIMVSELAVKLGRNFRAQLAILVLFRVVTSKEHIIRKGWKDIIRIWL
transcriptional activation domain activity: 62200

VQVVGVLCVGWSLKVWTMHLLGDGGVAVLVKGRTRTVPMAWEEWGAVVEVMRG
transcriptional activation domain activity: 40300

VRDMPQADPGADRAFDASLESSMRKLLDGLAGTSWPAKTSVWVSKLRIACNHV
transcriptional activation domain activity: 61200

VREEPTAFFFVVFGLVYETLVTSVPDSDAAAHRTSIVALKALKCLVQEKYCGK
transcriptional activation domain activity: 46200

VREWHVDLSFSSFGKTLLRELESLLERVRANWLEEVTVRTIALICSRLLASTI
transcriptional activation domain activity: 60800

VRLLIRCTRRSLYFWACLCCSWGIILHSLFITLANFNVLQSYGSIVIIHLTWC
transcriptional activation domain activity: 74300

VRLVDIFLLKKYYLINLSLAYLSILLFPPPSPRPLYHLFSIYFFFFLFSSASP
transcriptional activation domain activity: 45400

VRNNSENASHNNETGPIETELAQTISNEFWTAYNLGWEELMSQPDYKYLFDTQ
transcriptional activation domain activity: 117000

VRQQLKIRLIKLFRRFYPYVNFAYYASGLVYNVLYLFNKTKYYSPWLHLIGVQ
transcriptional activation domain activity: 52200

VRRLLWVTVIFDICFGMLYVLLAIFQCRPISYYWLGWDGEHQGTCLNVNGLAW
transcriptional activation domain activity: 46600

VRRVLLMVPDWFIIFGYRWYRALGLLKTVCPWWTSIINSSSVFYSMLWVDPSV
transcriptional activation domain activity: 90900

VRSLTLEIYFNWLQIIFDSKLQDEFSKLLNYNLITKVDLIINLLESIALRFSD
transcriptional activation domain activity: 51000

VRSRALLFVFKYYFFLVYFVFYRNLFARLRSFDQFALVQLLSSFWVCIWYPFS
transcriptional activation domain activity: 48400

VRSTRRSLYFWSCLTCSWGIIIHLLFILLLNFKIFENYGALVVVHFTWCIYVV
transcriptional activation domain activity: 63300

VRTALLKSSHDADIDATVHDQAVREFCSSLNAVTRGVNVLVMTVALLVEIYAA
transcriptional activation domain activity: 84400

VRTARQQLMEAAMKTFQLAVGPSEYLPNLALGYQYMACLRWLTHFNIFFHIPL
transcriptional activation domain activity: 71400

VRTVIESNRRLNLAVVSKSQRWRCSKIWIPGLLMHVFNFWCIVYMITFNAVWD
transcriptional activation domain activity: 49800

VRVLGHDTLYFLTLYLLKAELFFVFFFFLFFRYMLEKRTVIKFTFFFYPCLFE
transcriptional activation domain activity: 54700

VRVLNQLKLLLYCTLLSPVYAFKPYRNLYYTFLRKNLLGVVGGYNCAGHNLAI
transcriptional activation domain activity: 55500

VRVPDFHHADGRDHVRDGEDGHGDGHVRVHAHAQGGGQGRGLARDRVDAHARE
transcriptional activation domain activity: 13200

VRVRVRVQGREQVQVQVRELHPEQGHPHQEQEPLHLAREHHPELHQQKDQEHL
transcriptional activation domain activity: 52900

VRVVQLSLSLFIARFVTALVLPFIAIVTKWLVIGRYRPGIFPLWGTYYLRWWF
transcriptional activation domain activity: 45000

VRVVVANMFGLVIIFLFFFMYFDDFSKEILNAVQVSQIWMYLHFPLHLCQVAF
transcriptional activation domain activity: 50400

VRWIRVRKHIVMAATLAEPFTESIVLVVIGSSSLKYLVGLPRWLCILVHFFLL
transcriptional activation domain activity: 35900

VRYHVKNSPISGWVYEAKHVSDILATNTLLARIVIAKVQDEQRLVHLLQCLPI
transcriptional activation domain activity: 68800

VRYKGGLVGKHFKSLAQVMPYLIYDLVPRSVLDGWVMIGRLVVLLWHTLIEDT
transcriptional activation domain activity: 85100

VSAARKRWIAMVWLFTWWIPTYLLVCCGMKRQDIRMAWREKVAICIVIFWISA
transcriptional activation domain activity: 56200

VSASVVYLFFIFIFSLSYPILSCPYLLTHSLTLSILPPFSFPLPFFFLSFFLP
transcriptional activation domain activity: 58800

VSDYSMAQFRFLLKFLLVHGRWNYVRICKYTVGTFWKELLFYLTQALFQRSNG
transcriptional activation domain activity: 46600

VSFDFPRSPYPNGSFESFLRDIFARCNLLEVLVFRTKVKSLRGWLKHYTYFAD
transcriptional activation domain activity: 75400

VSFFFFLSFFFPPFFFFSLSFLLSFFLSFLLPFPFFLSFFPFFPGCAAPSRSN
transcriptional activation domain activity: 32200

VSFRLLVYALVSHVIFGIVLLIDCFYAFPGWHCSLLAFLINFNILFSASIFFC
transcriptional activation domain activity: 55200

VSLLTVIVPIGITCRMVIWICALGMVISSLCVDTILLNKAYKFSFIYIVVRHT
transcriptional activation domain activity: 55300

VSLRSLPYEVGFKQNFNLILNHDASLIKTTVRHLLVYCSLIKAIKLCLIFINK
transcriptional activation domain activity: 52500

VSMARGKKTFDRETIVIALERLLAVAPLAFQKVKILLALASCHFDFLSSASAY
transcriptional activation domain activity: 68200

VSMMQRILNIVCILPSLLERYDTLVALSETSNLGEVERLWIDCHAFLTNLRIW
transcriptional activation domain activity: 62400

VSPQIYYGSRLLGSGGLGLYFLRLPSLPCRTVVEILNTFLFFVMISYLQILLY
transcriptional activation domain activity: 46400

VSRIRAAVEAQLNHPVNHVLIQHYRSGKDYISEHSDKTIDVVAGSKIVNISIG
transcriptional activation domain activity: 37700

VSRLHAKIEYEEEEERFVLVVIGRNGAWVDGVWSGASSRVPLGERSQIQIASR
transcriptional activation domain activity: 65500

VSSCCPFPLFLFFSFFLSFFLPFLLSSFLSITQSSWPPFHCPCQDTFPFSLPF
transcriptional activation domain activity: 28000

VSSSSSSSSRTRKGGGDDEEVEGKERSATENKKKKLGKKGRIAARTKEKAAAA
transcriptional activation domain activity: 6920

VSTCLIKFLALIIEDLHHYFDPFQLKLIGVLVTWYEGAFAKSLFPGELISSEA
transcriptional activation domain activity: 52400

VSTMLCYLNYCRTDVTVPTNSNPIFKLDNSLFLRLILLCNINLLLLLPFGLYL
transcriptional activation domain activity: 47100

VSVGLLDLLAYCGYGFIGVNATSVVKIFSSDSFWAVYGMFSYTMICLAFFTLR
transcriptional activation domain activity: 25800

VSVRQASDGVGCLLEVMAHSRSVNAWTRVLKQLRLAQCVLLNIQQSLSQVWSM
transcriptional activation domain activity: 77300

VSVSLIFFTCFLSLSLFFCVLVRVSWLSVPVPSIVFFWISFLLFCPFFPFSFF
transcriptional activation domain activity: 35700

VSYVLFVLMHRSTQPLVQHLLFKLRWLPFPFFITKHYYSWIISAYSFIGYRNL
transcriptional activation domain activity: 56400

VSYVSYVLLFIPFFMLRVFYLSIVTFFLCHIWLHRFGFLVWLWILWCTWGWCN
transcriptional activation domain activity: 54800

VTCFGILCFLLSALYLCIGFDPFINQLLYCGVLWLFQGIYFVLFGMKVALHFQ
transcriptional activation domain activity: 36200

VTCGLLKVAIDLINHFPLFALVLRVKDPRRLPGSTYFRVIHDKGQTILMLEVD
transcriptional activation domain activity: 40300

VTFILALLVRLRRNLPLYSWMHWLHRHIDTLSSYDGISARPAWALFFIRLVWY
transcriptional activation domain activity: 74400
